# Source: US20110142789A1 (University of Pennsylvania, published 2011)
# Biological target: T1, endogenous human Ataxin-2 (human, UniProt Q99700 1-1313, limits assumed)
# T1 construct: Endogenous protein in HEK293T lysate, detected by immunoblot with α-Ataxin-2 (BD); also called ATXN2
# Assay: co-immunoprecipitation from HEK293T lysate (α-GFP IP, α-Ataxin-2 blot)
# Description: CFP-Pbp1 and TDP-43-YFP show accumulations in yeast that frequently co-localize (arrows). b) Co-immunoprecipitation assays in yeast. Yeast cells co-transformed with untagged TDP-43 and either CFP-Pbp1 or CFP alone were lysed and subjected to immunoprecipitation with an α-GFP antibody (also detects CFP), then subjected to immunoblotting with a-TDP43. […] HEK293T cells were transfected with expression constructs encoding YFP, TDP-43-YFP, TDP-43ΔNLS-YFP (NLS mutant that localizes the protein to the cytoplasm), TDP-43_{ΔNLS,5F}_{_{→}}L-YFP (NLS mutant coupled with RNA-binding mutant, (5 point mutations in the RRM domains that abolish RNA-binding)), or TDP-435F_{_{→}}L-YFP (RNA-binding mutant). Protein was immunoprecipitated with a-GFP antibody (detects YFP), and then subjected to immunoblotting with a-Ataxin-2 to detect endogenous Ataxin-2. […] The interaction between Ataxin-2 and TDP-43 seen normally (left lanes) was abolished upon RNase treatment (right lanes). e) HEK293T cells transfected with YFP-tagged WT and mutant TDP-43 constructs then immunostained for endogenous Ataxin-2. Normally, Ataxin-2 is localized to the cytoplasm forming occasional cytoplasmic accumulations. TDP-43 localized to the nucleus in a diffuse pattern. […]
# T1 sequence (Q99700 whole entry): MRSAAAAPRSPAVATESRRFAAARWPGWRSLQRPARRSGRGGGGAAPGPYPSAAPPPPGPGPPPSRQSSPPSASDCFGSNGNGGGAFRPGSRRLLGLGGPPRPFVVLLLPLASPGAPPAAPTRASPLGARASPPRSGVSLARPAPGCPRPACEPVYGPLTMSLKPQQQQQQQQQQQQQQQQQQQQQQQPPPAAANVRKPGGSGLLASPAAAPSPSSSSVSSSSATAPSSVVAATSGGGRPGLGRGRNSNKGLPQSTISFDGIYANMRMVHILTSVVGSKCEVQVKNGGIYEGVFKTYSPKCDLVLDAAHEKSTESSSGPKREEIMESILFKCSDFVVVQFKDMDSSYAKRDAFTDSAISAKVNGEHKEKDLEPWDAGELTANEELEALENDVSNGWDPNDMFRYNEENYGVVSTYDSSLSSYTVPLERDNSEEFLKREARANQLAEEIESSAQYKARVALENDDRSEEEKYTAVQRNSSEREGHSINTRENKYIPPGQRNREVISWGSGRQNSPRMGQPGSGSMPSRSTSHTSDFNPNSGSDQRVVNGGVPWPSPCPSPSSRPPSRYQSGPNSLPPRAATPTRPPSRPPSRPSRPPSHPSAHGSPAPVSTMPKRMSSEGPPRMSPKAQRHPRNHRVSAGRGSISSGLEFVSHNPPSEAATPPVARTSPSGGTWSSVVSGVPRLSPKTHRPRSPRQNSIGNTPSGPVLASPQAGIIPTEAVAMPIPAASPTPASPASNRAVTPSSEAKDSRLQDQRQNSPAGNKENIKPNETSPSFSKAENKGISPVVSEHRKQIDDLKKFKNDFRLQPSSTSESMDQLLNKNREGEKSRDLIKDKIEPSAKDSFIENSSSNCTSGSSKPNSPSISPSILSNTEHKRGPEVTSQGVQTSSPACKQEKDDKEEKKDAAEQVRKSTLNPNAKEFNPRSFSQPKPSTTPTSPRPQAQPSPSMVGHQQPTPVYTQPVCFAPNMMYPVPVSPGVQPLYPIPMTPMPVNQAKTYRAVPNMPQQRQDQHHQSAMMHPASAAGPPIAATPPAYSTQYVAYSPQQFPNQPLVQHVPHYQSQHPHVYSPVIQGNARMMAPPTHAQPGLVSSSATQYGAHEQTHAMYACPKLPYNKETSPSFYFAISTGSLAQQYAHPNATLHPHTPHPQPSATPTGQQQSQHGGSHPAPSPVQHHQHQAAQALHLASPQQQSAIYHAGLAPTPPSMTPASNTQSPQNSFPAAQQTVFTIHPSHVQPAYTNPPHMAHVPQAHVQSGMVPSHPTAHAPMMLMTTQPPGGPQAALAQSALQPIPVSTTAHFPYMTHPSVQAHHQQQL
binder,measurement,value
"TDP-43ΔNLS,5F→L-YFP (other, human, UniProt Q13148 1-414, looked up, also called ΔNLS-TDP-43-(5F→L)-YFP; not shown: C-terminal YFP tag) MSEYIRVTEDENDEPIEIPSEDDGTVLLSTVTAQFPGACGLRYRNPVSQCMRGVRLVEGILHAPDAGWGNLVYVVNYPKDNAAAMDETDASSAVKVKRAVQKTSDLIVLGLPWKTTEQDLKEYFSTFGEVLMVQVKKDLKTGHSKGLGLVRFTEYETQVKVMSQRHMIDGRWCDCKLPNSKQSQDEPLRSRKVLVGRCTEDMTEDELREFFSQYGDVMDVFIPKPFRALALVTFADDQIAQSLCGEDLIIKGISVHISNAEPKHNSNRQLERSGRFGGNPGGFGNQGGFGNSRGGGAGLGNNQGSNMGGGMNFGAFSINPAMMAAAQAALQSSWGMMGMLASQQNQSGPSGNNQNQGNMQREPNQAFGSGNNSYSGSNSGAAIGWGSASNAGSGSGFNGGFGSSMDSKSSGWGM",binding result,no binding
